{
  "source": "patent US20040102388",
  "molecules": {"B1": {"name": "FVII-RKRRKR (protein)", "chain": "ANAFLEELRPGSLERECKEEQCSFEEAREIFKDAERTKLFWISYSDGDQCASSPCQNGGSCKDQLQSYICFCLPAFEGRNCETHKDDQLICVNENGGCEQYCSDHTGTKRSCRCHEGYSLLADGVSCTPTVEYPCGKIPILEKRNASKPQGRRKRRKRRKRIVGGKVCPKGECPWQVLLLVNGAQLCGGTLINTIWVVSAAHCFDKIKNWRNLIAVLGEHDLSEHDGDEQSRRVAQVIIPSTYVPGTTNHDIALLRLHQPVVLTDHVVPLCLPERTFSERTLAFVRFSLVSGWGQLLDRGATALELMVLNVPRLMTQDCLQQSRKVGDSPNITEYMFCAGYSDGSKDSCKGDSGGPHATHYRGTWYLTGIVSWGQGCATVGHFGVYTRVSQYIEWLQKLMRSEPRPGVLLRAPFP"}, "B2": {"name": "FVII-RKR (protein)", "chain": "ANAFLEELRPGSLERECKEEQCSFEEAREIFKDAERTKLFWISYSDGDQCASSPCQNGGSCKDQLQSYICFCLPAFEGRNCETHKDDQLICVNENGGCEQYCSDHTGTKRSCRCHEGYSLLADGVSCTPTVEYPCGKIPILEKRNASKPQGRRKRIVGGKVCPKGECPWQVLLLVNGAQLCGGTLINTIWVVSAAHCFDKIKNWRNLIAVLGEHDLSEHDGDEQSRRVAQVIIPSTYVPGTTNHDIALLRLHQPVVLTDHVVPLCLPERTFSERTLAFVRFSLVSGWGQLLDRGATALELMVLNVPRLMTQDCLQQSRKVGDSPNITEYMFCAGYSDGSKDSCKGDSGGPHATHYRGTWYLTGIVSWGQGCATVGHFGVYTRVSQYIEWLQKLMRSEPRPGVLLRAPFP"}, "B3": {"name": "FVII-PRPSRKRR (protein)", "chain": "ANAFLEELRPGSLERECKEEQCSFEEAREIFKDAERTKLFWISYSDGDQCASSPCQNGGSCKDQLQSYICFCLPAFEGRNCETHKDDQLICVNENGGCEQYCSDHTGTKRSCRCHEGYSLLADGVSCTPTVEYPCGKIPILEKRNASKPQGRPRPSRKRRIVGGKVCPKGECPWQVLLLVNGAQLCGGTLINTIWVVSAAHCFDKIKNWRNLIAVLGEHDLSEHDGDEQSRRVAQVIIPSTYVPGTTNHDIALLRLHQPVVLTDHVVPLCLPERTFSERTLAFVRFSLVSGWGQLLDRGATALELMVLNVPRLMTQDCLQQSRKVGDSPNITEYMFCAGYSDGSKDSCKGDSGGPHATHYRGTWYLTGIVSWGQGCATVGHFGVYTRVSQYIEWLQKLMRSEPRPGVLLRAPFP"}, "B4": {"name": "wild type FVII (human Factor VII) (protein)", "chain": "ANAFLEELRPGSLERECKEEQCSFEEAREIFKDAERTKLFWISYSDGDQCASSPCQNGGSCKDQLQSYICFCLPAFEGRNCETHKDDQLICVNENGGCEQYCSDHTGTKRSCRCHEGYSLLADGVSCTPTVEYPCGKIPILEKRNASKPQGRIVGGKVCPKGECPWQVLLLVNGAQLCGGTLINTIWVVSAAHCFDKIKNWRNLIAVLGEHDLSEHDGDEQSRRVAQVIIPSTYVPGTTNHDIALLRLHQPVVLTDHVVPLCLPERTFSERTLAFVRFSLVSGWGQLLDRGATALELMVLNVPRLMTQDCLQQSRKVGDSPNITEYMFCAGYSDGSKDSCKGDSGGPHATHYRGTWYLTGIVSWGQGCATVGHFGVYTRVSQYIEWLQKLMRSEPRPGVLLRAPFP"}},
  "key": {"[1]": {"biological_target": "FVII-RKR (UniProt P08709)"}, "[2]": {"biological_target": "FVII-PRPSRKRR (UniProt P08709)"}, "[3]": {"biological_target": "FVII-RKRRKR (UniProt P08709)"}, "[4]": {"biological_target": "wild type FVII (human Factor VII) (UniProt P08709)"}, "[5]": {"biological_target": "soluble Tissue factor"}},
  "data": [
    {"molecule": "Factor Xa", "values": [
      {"measurement": "FXa activation: conversion of single-chain zymogen to two-chain material (reducing gel)", "setting": "[1]", "result": "the single-chain zymogen protein in all but FVII-INS was nearly completely converted to two-chain material"},
      {"measurement": "FXa activation: conversion of single-chain zymogen to two-chain material (reducing gel)", "setting": "[2]", "result": "the single-chain zymogen protein in all but FVII-INS was nearly completely converted to two-chain material"},
      {"measurement": "FXa concentration giving complete cleavage of zymogen", "setting": "[2]", "result": "Addition of 1 µM FXa (i.e 50 fold higher than for the other FVIIa proteins) resulted in complete cleavage of zymogen FVII-INS"},
      {"measurement": "FXa activation: conversion of single-chain zymogen to two-chain material (reducing gel)", "setting": "[3]", "result": "the single-chain zymogen protein in all but FVII-INS was nearly completely converted to two-chain material"},
      {"measurement": "FXa activation: conversion of single-chain zymogen to two-chain material (reducing gel)", "setting": "[4]", "result": "modified FVII, like wild type FVII, is autoactivated by (A) soluble Tissue factor (sTF) and (B) Factor Xa"}
    ]},
    {"molecule": "B1", "values": [
      {"measurement": "autoactivation: cleavage of single-chain zymogen to two-chain FVIIa (reducing gel)", "setting": "[5]", "result": "all modified FVIIa contain single-chain material that can be cleaved"}
    ]},
    {"molecule": "B2", "values": [
      {"measurement": "autoactivation: cleavage of single-chain zymogen to two-chain FVIIa (reducing gel)", "setting": "[5]", "result": "all modified FVIIa contain single-chain material that can be cleaved"}
    ]},
    {"molecule": "B3", "values": [
      {"measurement": "autoactivation: cleavage of single-chain zymogen to two-chain FVIIa (reducing gel)", "setting": "[5]", "result": "all modified FVIIa contain single-chain material that can be cleaved"}
    ]},
    {"molecule": "B4", "values": [
      {"measurement": "autoactivation: cleavage of single-chain zymogen to two-chain FVIIa (reducing gel)", "setting": "[5]", "result": "single-chain protein (zymogen) in the FVII or the FVIIa preparations was cleaved to yield a two-chain material (FVIIa)"}
    ]}
  ]
}
